The values below come from patent CN110964111A (BEIJING DONGFANG BIOTECH CO LTD, dated 2020).

First the molecules themselves.
B1: BH2-B11 全抗体 (full antibody, human IgG1/kappa) (antibody, V domains shown)
VH: EVQLVESGGGLVQPGGSLRLSCAASGLTWSDSYKHWVRQAPGKGLEWVHWNSTYGGSTYYADSVKGRFTISADTSKNTAYLQMNSLRAEDTAVYYCARRHFASTWDYWGQGTLVTVSS
VL: DIQMTQSPSSLSASVGDRVTITCRASQNIHNSLAWYQQKPGKAPKLLIYGASSLESGVPSRFSGSGSGTDFTLTISSLQPEDFATYYCQQERRVPWTFGQGTKVEIKR
B2: AH10-E3 全抗体 (full antibody, human IgG1/kappa) (antibody, V domains shown)
VH: EVQLVESGGGLVQPGGSLRLSCAASGWTLSDSLQHWVRQAPGKGLEWVGFQSAYGGSTYYADSVKGRFTISADTSKNTAYLQMNSLRAEDTAVYYCARRHYYTAWDYWGQGTLVTVSS
VL: B1 VL with N28S, S32Y, G50S, S53N, E55P, E91G, R92L, R93H, V94T, W96P
B3: AC9-E3 全抗体 (full antibody, human IgG1/kappa) (antibody, V domains shown)
VH: B1 VH with L27C, Y33W, K34D, H49D, W50Y, N51E, F101W, A102N, S103A, W105F
VL: B1 VL with N28S, S32Y, G50S, S53N, E55P, E91G, R92L, R93H, V94T, W96P
B4: AH10-B11 全抗体 (full antibody, human IgG1/kappa) (antibody, V domains shown)
VH: B2 VH
VL: B1 VL
B5: AC9-B11 全抗体 (full antibody, human IgG1/kappa) (antibody, V domains shown)
VH: B1 VH with L27C, Y33W, K34D, H49D, W50Y, N51E, F101W, A102N, S103A, W105F
VL: B1 VL
B6: BH2-E3 全抗体 (full antibody, human IgG1/kappa) (antibody, V domains shown)
VH: B1 VH
VL: B1 VL with N28S, S32Y, G50S, S53N, E55P, E91G, R92L, R93H, V94T, W96P

Where a chain is given by its changes, count along the chain named.

In this experiment the target is PD-L1 (UniProt Q9NZQ7 19-238, limits assumed). As to the kind of experiment: cell-based or functional assay.
PD-L1, sequence (Q9NZQ7 19-238 limits assumed): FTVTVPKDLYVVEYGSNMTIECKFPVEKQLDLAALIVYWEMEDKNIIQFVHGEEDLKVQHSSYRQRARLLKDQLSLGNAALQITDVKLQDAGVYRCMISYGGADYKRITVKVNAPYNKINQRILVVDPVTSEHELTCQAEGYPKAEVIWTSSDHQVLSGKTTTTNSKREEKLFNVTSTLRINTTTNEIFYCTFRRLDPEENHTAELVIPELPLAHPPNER
As to B1, the “EC50, CD4+ T细胞增殖 (混合淋巴细胞反应 MLR, cck8)” value was 6.73 ng/mL. For the molecule B2, the “EC50, CD4+ T细胞增殖 (混合淋巴细胞反应 MLR, cck8)” value came to 11.4 ng/mL. In the case of B3 it was 11.9 ng/mL; in that of B4, 9.88 ng/mL; in that of B5, 7.58 ng/mL. Consider B6, for which the “EC50, CD4+ T细胞增殖 (混合淋巴细胞反应 MLR, cck8)” value was 7.71 ng/mL.
